As a reminder, the koff is the first-order rate constant of dissociation. Higher therefore signals a short-lived complex. The kon is the second-order rate constant of association. A higher kon goes with faster complex formation. As usually defined, the Kd is a measure of binding affinity in units of concentration. The low end stands for a tighter complex, the high end for a looser complex.

From patent US20230070261A1 (UCB, published 2023) come the findings set out here.

Experiment [1] deals with T1, Active human KLK5 (human, UniProt Q9Y337 67-293).
Experiment [2] deals with T1, Active human KLK5. As to the kind of experiment: cell-based or functional assay.
Experiment [3] has as its target T1, Active human KLK5. As to the kind of experiment: SPR; rabbit antibody 10273 captured on anti-rabbit Fc and saturated with 20 nM human KLK5, LEKTI D5 Fab fusion as analyte (KLK5 in complex with 10273); 1:1 model. As to the method:
(§1) 20 nM of human KLK5 was then injected until the surface reached saturation. LEKTI D5 Fab fusion protein (generated as described in example 1) was then injected at concentrations between 30 μM and 100 nM. Values from buffer only injections were first subtracted from those obtained with the analytes before fitting to a 1:1 binding kinetic model in Biacore™ evaluation software (GE Life Sciences™)
(§2) As reference, LEKTI D5 Fab fusion protein was immobilised to the chip surface prior to monitoring the interaction with human KLK5.
Background: SPR reads the build-up and loss of mass on a sensor chip optically.

The target in experiment [4] is T1, Active human KLK5. As to the kind of experiment: SPR; rabbit antibody 10273 captured on anti-rabbit Fc and saturated with 20 nM human KLK5, LEKTI D5 Fab fusion as analyte (KLK5 in complex with 10273); average value n = 2; human KLK5 already in complex with captured rabbit antibody 10273; LEKTI D5 Fab fusion as analyte; average n = 2. As to the method: as §1, §2

Experiment [5] deals with T1, Active human KLK5. The experiment in a line: SPR (Biacore T200, 25 C); IgG captured on anti-human IgG Fc, human KLK5 as analyte; 1:1 model; duplicate sample. The method, then: (§3) The kinetics of these grafts for binding to human KLK5 were assessed by surface plasmon resonance (Biacore T200) at 25° C.
(§4) A goat anti-human IgG Fc specific antibody (Jackson ImmunoResearch) was immobilised on a CM5 Sensor Chip via amine coupling chemistry to a level of approximately 7000RU. Each analysis cycle consisted of capture of the anti-KLK5 IgG molecules to the anti Fc surface, injection of KLK5 analyte (prepared in house) for 180 s at 30 μl/min followed by 600 s dissociation. At the end of each cycle the surface was regenerated at a flowrate of 10 μL/min using a 60 s injection of 50 mM HCl followed by a 30 s injection of 5 mM NaOH and a final 60 s injection of 50 mM HCl. Human KLK5 was titrated from 20 nM to 0.74 nM (3×3-fold serial dilutions) in HBS-EP+running buffer (GE Healthcare) supplemented with NaCl to a final concentration of 300 mM. Buffer blank injections were included to subtract instrument noise and drift.
(§5) Kinetic parameters were determined using a 1:1 binding model using Biacore T200 Evaluation software.

The target of experiment [6] is T1, Active human KLK5. The experiment in a line: SPR (Biacore T200, 25 C); IgG captured on anti-human IgG Fc, human KLK5 as analyte; 1:1 model. The method, then: as §3, §4, §5

Where a chain is given by its changes, count along the chain named. Names may count otherwise. “And” between values parts separate entries of the source, which are not always exact repeats. Equal entries are not always repeated. Where two headings read alike, the source gives them in different places.

Human LEKTI D5 rabbit Fc (Fc fusion) gave an IC50 (read off the curve) in experiment [1] of 200 nM. In experiment [2], the IC50 (M), inhibition of kallikrein protease activity (fluorogenic peptide substrate) is 1.03e-10 M.

B1: LEKTI D5 Fab fusion (other)
heavy: EVQLLESGGGLVQPGGSLRLSCAVSGIDLSNYAINWVRQAPGKGLEWIGIIWASGTTFYATWAKGRFTISRDNSGGGGSGGGGSREIVKLCSQYQNQAKNGILFCTRENDPIRGPDGKMHGNLCSMCQAYFQAENEEKKKAEARARSGGGGGGGGSKNTVYLQMNSLRAEDTAVYYCARTVPGYSTAPYFDLWGQGTLVTVSSASTKGPSVFPLAPSSKSTSGGTAALGCLVKDYFPEPVTVSWNSGALTSGVHTFPAVLQSSGLYSLSSVVTVPSSSLGTQTYICNVNHKPSNTKVDKKVEPKSCHHHHHHHHHH
light: DIQMTQSPSSVSASVGDRVTITCQSSPSVWSNFLSWYQQKPGKAPKLLIYEASKLTSGVPSRFSGSGSGTDFTLTISSLQPEDFATYYCGGGYSSISDTTFGGGTKVEIKRTVAAPSVFIFPPSDEQLKSGTASVVCLLNNFYPREAKVQWKVDNALQSGNSQESVTEQDSKDSTYSLSSTLTLSKADYEKHKVYACEVTHQGLSSPVTKSFNRGEC
notes: also called LEKTI D5 Fab fusion protein; LEKTI D5Fab fusion protein
In experiment [3], B1 showed a dissociation rate constant (koff) of 0.000565 s⁻¹ and a kon of 28700 M⁻¹ s⁻¹. This molecule also came in with a Kd in experiment [4] of 13.4 nM.

B2: 10273gL2-Q1RgH1-D19N (antibody, human IgG4 S228P, kappa, V domains shown)
VH: EVQLVESGGGLVQPGGSLRLSCAVSGFSLSSYGMSWVRQAPGKGLEWIGIISSSGSTYYASWAKGRFTISKDSSKNTVYLQMNSLRAEDTAVYYCARDHIYRYDDYGDYPTYYGMNPWGQGTTVTVSS
VL: AIQLTQSPSSLSASVGDRVTITCRSSQSVYNNNDLAWYQQKPGKAPKLLIYRASTLASGVPSRFSGSGSGTDFTLTISSLQPEDFATYYCLGGYDDDVDTYTFGGGTKVEIKR
modifications: sulphation (+80 Da) of Tyr 9 of CDR-H3, 80% of heavy chain (Table 7)
notes: Humanized graft, hIgG4P
With B2, in experiment [5], the Kd is 0.41 nM and 0.309 nM; the koff was 0.000175 s⁻¹ and 0.000133 s⁻¹; the kon was 427000 M⁻¹ s⁻¹ and 257000 M⁻¹ s⁻¹.

B3: 10273 gL2-Q1RgH1-D19N-Y16F (antibody, human IgG4 S228P, kappa, V domains shown)
VH: B2 VH with Y113F
VL: B2 VL
modifications: sulphation (+80 Da) of Tyr 9 of CDR-H3, 75% of heavy chain (Table 7)
notes: Humanized graft, hIgG4P
In experiment [6], B3 yielded a Kd of 5.77 nM, a koff of 0.0016 s⁻¹ and a kon of 277000 M⁻¹ s⁻¹.

B4: 10273 gL2-Q1RgH1-D19N-Y12F (antibody, human IgG4 S228P, kappa, V domains shown)
VH: B2 VH with Y109F
VL: B2 VL
modifications: sulphation (+80 Da) of Tyr 9 of CDR-H3, 75% of heavy chain (Table 7)
notes: Humanized graft, hIgG4P
In experiment [6], B4 showed a Kd of 0.319 nM, an off-rate (koff) of 0.000138 s⁻¹ and a kon of 432000 M⁻¹ s⁻¹.

B5: 10273 gL2-Q1RgH1-D19N-T14V (antibody, human IgG4 S228P, kappa, V domains shown)
VH: B2 VH with T111V
VL: B2 VL
modifications: sulphation (+80 Da) of Tyr 9 of CDR-H3, 75% of heavy chain (Table 7)
notes: Humanized graft, hIgG4P
Take B5: in experiment [6], the Kd turned out to be 6.9 nM, the koff came to 0.00251 s⁻¹ and the kon worked out at 364000 M⁻¹ s⁻¹.

B6: 10273 gL2gH1 (antibody, human IgG4 S228P, kappa, V domains shown)
VH: B2 VH with N116D
VL: B2 VL with R24Q
modifications: sulphation (+80 Da) of Tyr 9 of CDR-H3, 95% of heavy chain (hIgG4P, Table 7)
notes: Humanized graft
For B6, in experiment [6], the affinity, expressed as Kd, was 0.164 nM; the koff turned out to be 8.45e-05 s⁻¹; the kon worked out at 514000 M⁻¹ s⁻¹.

B7: 10273 gL2-Q1RgH1-D19N-Y6F (antibody, human IgG4 S228P, kappa, V domains shown)
VH: B2 VH with Y103F
VL: B2 VL
modifications: sulphation (+80 Da) of Tyr 9 of CDR-H3, 75% of heavy chain (Table 7)
notes: Humanized graft, hIgG4P
As for B7, in experiment [6], the Kd is 0.625 nM, the koff is 0.000186 s⁻¹ and the kon was found to be 298000 M⁻¹ s⁻¹.

B8: 10273 gL2-Q1RgH1-D19N-Y9F (antibody, human IgG4 S228P, kappa, V domains shown)
VH: B2 VH with Y106F
VL: B2 VL
notes: Humanized graft, hIgG4P
On to B8, for which, in experiment [6], binding was put at a Kd of 0.554 nM, the koff was found to be 0.0002 s⁻¹ and the kon was found to be 362000 M⁻¹ s⁻¹.

B9: 10273 gL2-Q1RgH1-D19N-T14S (antibody, human IgG4 S228P, kappa, V domains shown)
VH: B2 VH with T111S
VL: B2 VL
modifications: sulphation (+80 Da) of Tyr 9 of CDR-H3, 65% of heavy chain (Table 7)
notes: Humanized graft, hIgG4P
In experiment [6], B9 had a Kd of 0.644 nM, a koff of 0.000165 s⁻¹ and a kon of 257000 M⁻¹ s⁻¹.

B10: 10273 gL2-Q1RgH1-D19N-Y15F (antibody, human IgG4 S228P, kappa, V domains shown)
VH: B2 VH with Y112F
VL: B2 VL
modifications: sulphation (+80 Da) of Tyr 9 of CDR-H3, 85% of heavy chain (Table 7)
notes: Humanized graft, hIgG4P
On to B10, for which, in experiment [6], the equilibrium dissociation constant (Kd) turned out to be 0.249 nM, the koff stood at 0.000139 s⁻¹ and the kon was found to be 558000 M⁻¹ s⁻¹.

B11: 10273 gL2-Q1RgH1-D19N-Y4F (antibody, human IgG4 S228P, kappa, V domains shown)
VH: B2 VH with Y101F
VL: B2 VL
modifications: sulphation (+80 Da) of Tyr 9 of CDR-H3, 85% of heavy chain (Table 7)
notes: Humanized graft, hIgG4P
As to B11, in experiment [6], binding was characterised by a dissociation constant (Kd) of 1.15 nM, the koff stood at 0.000519 s⁻¹ and the kon was 451000 M⁻¹ s⁻¹.

B12: Rabbit antibody 10273 (antibody, V domains shown)
VH: QSVEESGGRLVTPGTPLTLTCTVSGFSLSSYGMSWVRQAPGKGLEWIGIISSSGSTYYASWAKGRFTISKTSTTVDLKIASPTTEDTATYFCARDHIYRYDDYGDYPTYYGMDPWGPGTLVTVSS
VL: AVVLTQTPSPMSAAVGGTVTISCQSSQSVYNNNDLAWYQQKPGQPPKLLIYRASTLASGVPSRFSGSGSGTQFTLTISGVQCDDAATYYCLGGYDDDVDTYTFGGGTEVVVK
As for B12, the “IC50 (read off the curve)” value in experiment [2] was about 50 nM.
